Experimental data published in patent US20160053242A1, “THERMOSTABLE NUCLEASE” (priority 2013, published 2016).

Columns and labels:
calf thymus dsDNA = assay: Assay of nuclease activity, DNA degradation level on agarose gel
Description: (§1) Standard (20 μl) reaction mixture contained 2 μg of calf thymus dsDNA in activity buffer (20 mM Tris-HCl, 20 mM MgCl2 at pH 7.24). When required, several concentrations of alternative divalent cations, BaCl2, CaCl2, NaCl, MnSO4, NiSO4, MgCl2, CoCl2, KCl, were tested and the effects of other compounds (0.1, 0.25, 0.5 and 1 mg/ml BSA, 0.05, 0.1, 0.5 and 1 mM dNTPs, 2, 5, 10, 20, 50, 100 mM EDTA, 5, 15, 30, 50% glycerol, 0.1, 0.25, 0.5 and 1% SDS, and 1, 2, 3, 4, 5, 6, 7 and 8 M urea) were investigated. […] In all cases, the reaction was started by the addition of 2 μl of nickel column purified enzyme, and terminated by adding 4 μl of agarose gel loading buffer (0.1 M EDTA, pH 8.0, 0.05% bromophenol blue, 50% glycerol). Nuclease activity was evaluated by assessing DNA degradation level on gel electrophoresis (1.2% agarose, with 0.25 μg/ml of ethidium bromide, at 170 V for 30 min, in Tris-borate EDTA buffer).

[1] = Active two-dimensional gel electrophoresis (isoelectric point); assay type: physicochemical; conditions: partially purified crude extracts of CCRI-10035 heated at 80° C. for 1 h; 2D gel
Description: Protein concentration was measured by the method of Bradford. An 18 cm Immobiline™ pH 4-7 DryStrip was applied. Proteins (200 μg) were diluted in T8 buffer (7 M Urea, 3% W/V CHAPS; 3-[(3-cholamidopropyl)dimethylammonio]-1-propanesulfonate, 20 mM DTT; dithiothreitol, 5 mM TCEP; tris(2-carboxyethyl)phosphine hydrochloride) and precipitated with 2-D clean-up kit (Amersham Biosciences) to remove substances interfering with isoelectric focusing (IEF) such as detergents, salts, lipids, phenolic and nucleic acids. IEF was carried out using IPTGhor IEF system (Amersham Biosciences) for the first dimension as recommended by the manufacturer. After first dimension, the strip was cut 5 cm from (+) terminal and 7 cm from (−) terminal. The cut strip was linked with agarose onto 12% SDS-PAGE containing 20 μg/ml dsDNA calf thymus DNA (Calbiochem). Markers and proteins were prepared according to the manufacturer's instructions on Whatman paper and run alongside the cut strip. After electrophoresis, the gel was rinsed with water, and placed into the gel incubation buffer (20 mM Tris-HCl, pH 9.08, 20 mM MgCl2). Two hours later, the gel was rinsed again and incubated in the gel incubation buffer overnight at 37° C. […] Trypsin fragmentation results were analyzed using Mascot software (Matrix Science) for peptide identification. […]

calf thymus ssDNA = assay: Assay of nuclease activity, substrate specificity: ssDNA; conditions: no metal ion added
Description: as §1

[2] = test system: plasmid DNA pET-24a(+) (closed circular double stranded); assay: Assay of nuclease activity, substrate specificity: plasmid DNA; conditions: no metal ion added
Description: as §1

[3] = digestion of calf thymus dsDNA at 37° C.

B1: Nucyep: thermostable non-specific nuclease from Yersinia enterocolitica subsp. palearctica; 283-amino-acid protein, SEQ ID NO. 6 (protein)
chain: MKFNLIKLLPVLLLTACTTTDHSMSAPKTILSAPTVTEQNLPAAAIDNCLVGCPTGGSDQTVIRDVYTLNNNSHTKFANWVAYKVTKSSQASNHPRKWAQDPDLPDSDTLAPADYTGANQKLAVDRGHQAPLSLLAGNEDSQALNYLSNITPQKAALNQGAWVRLEDQERNLANRPDVTAVYSVTGPLFERHIATLPAKPTVEIPSGYWKIIFIGTSPDKGQYAAFLMDQNTAKSANFCDYQVNVDTIEAKTNPQLTIWSNLPADVAQIIKSQKGTLAQTIGCD
modifications: Yersinia enterocolitica sub. paleartica
Calf thymus dsDNA; 2 mM Ca2+
  Effect of 2 mM Ca2+ on nuclease activity: inhibited
Calf thymus dsDNA; 2 mM CuSO4
  Effect of 2 mM CuSO4 on nuclease activity: inhibited
Calf thymus dsDNA; 2 mM ZnCl2
  Effect of 2 mM ZnCl2 on nuclease activity: inhibited
Calf thymus dsDNA; 0.1% SDS
  Effect of 0.1% SDS on nuclease activity: inhibited
Calf thymus dsDNA; EDTA 100 mM
  Effect of 100 mM EDTA on nuclease activity: inhibited
Calf thymus dsDNA; [3]
  Activity left after heating at 80° C. for 60 minutes (1 h): ~5%
  Activity left after heating at 100° C. for 20 minutes: ~5%
Calf thymus dsDNA; examined within 0 to 100° C.
  Optimum temperature: about 35 °C
Calf thymus dsDNA; longer than 20 minutes at 100° C., compared to undigested controls
  Activity after exposure to longer times at 100° C.: no remaining nuclease activity
Calf thymus dsDNA; no metal ion added, linear dsDNA
  Nuclease activity on dsDNA without addition of metal ions: able to degrade
[1]
  Isoelectric point of the spot with heat-stable nuclease activity: about 5.2
Calf thymus ssDNA
  Nuclease activity on ssDNA without addition of metal ions: able to degrade
[2]
  Nuclease activity on plasmid (circular ds) DNA without addition of metal ions: but not the circular dsDNA or RNA
